These results are taken from publication PMC8484351, “Preclinical development of a bispecific TNFα/IL-23 neutralising domain antibody as a novel oral treatment for inflammatory bowel disease” (Scientific Reports, 2021).

Test [1] concerns the target T1, Recombinant Human IL-23 (human, UniProt Q9NPF7;P29460). The test is described as follows: cell-based or functional assay.
In test [2] the target is T1, Recombinant Human IL-23. The test can be described thus: SPR; Biacore; anti-p40 monoclonal antibody coupled to a CM5 chip and loaded with recombinant human IL-23 at 2 or 0.5 ug/mL; V900 at 0.02, 0.08, 0.3, 1.25 and 5 nM, 300 s on and 300 s off, 30 uL/min. The settings on record: both partners purified.
In test [3] the target is T1, Recombinant Human IL-23. The test is described as follows: ELISA; human IL-23/IL-23R receptor/ligand inhibition ELISA; block buffer 1% BSA in PBS pH 7.4 with 4% Marvel milk; 0.1 mM PMSF added for trypsin-treated V56B2; protocol in the Supplementary Methods. The settings on record: both partners purified.
In test [4] the target is T2, Recombinant cynomolgus monkey IL-23 (cynomolgus monkey).
T2 construct: IL-23p19 subunit of cynomolgus monkey IL-23; IL-12p40 subunit of cynomolgus monkey IL-23; also called cIL-23; IL-23 from cynomolgus monkey; source: bought: Fusion Antibodies (custom preparation)
T2 chain 1: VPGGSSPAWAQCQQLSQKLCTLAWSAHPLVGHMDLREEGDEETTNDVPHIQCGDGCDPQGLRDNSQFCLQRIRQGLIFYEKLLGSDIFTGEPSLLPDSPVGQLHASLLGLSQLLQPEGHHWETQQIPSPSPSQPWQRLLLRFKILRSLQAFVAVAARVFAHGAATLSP
T2 chain 2: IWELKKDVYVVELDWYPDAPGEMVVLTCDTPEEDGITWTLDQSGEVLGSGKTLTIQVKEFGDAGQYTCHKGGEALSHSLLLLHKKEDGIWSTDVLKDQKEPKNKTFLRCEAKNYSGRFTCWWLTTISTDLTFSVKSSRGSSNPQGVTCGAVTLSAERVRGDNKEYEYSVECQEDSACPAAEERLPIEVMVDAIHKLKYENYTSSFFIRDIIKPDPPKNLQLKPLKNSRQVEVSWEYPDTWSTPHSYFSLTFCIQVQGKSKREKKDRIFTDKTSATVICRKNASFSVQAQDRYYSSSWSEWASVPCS
The test is described as follows: ELISA; cynomolgus monkey IL-23/IL-23R receptor/ligand inhibition ELISA; protocol in the Supplementary Methods. The conditions noted are these: both partners purified.

In test [5] the target is T3, Recombinant Human IL-23 (human, UniProt Q9NPF7 20-189; P29460 23-328).
T3 construct: IL-23p19 subunit of human IL-23; IL-12p40 subunit, shared with IL-12; Heterodimer of p19 and p40; also called interleukin-23; source: bought: Sino Biologicals
T3 sequence (looked up) 1: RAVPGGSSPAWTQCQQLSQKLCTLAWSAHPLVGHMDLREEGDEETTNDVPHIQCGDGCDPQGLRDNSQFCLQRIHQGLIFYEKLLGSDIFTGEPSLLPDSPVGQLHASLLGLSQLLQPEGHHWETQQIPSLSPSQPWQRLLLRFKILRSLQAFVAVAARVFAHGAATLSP
T3 sequence (looked up) 2: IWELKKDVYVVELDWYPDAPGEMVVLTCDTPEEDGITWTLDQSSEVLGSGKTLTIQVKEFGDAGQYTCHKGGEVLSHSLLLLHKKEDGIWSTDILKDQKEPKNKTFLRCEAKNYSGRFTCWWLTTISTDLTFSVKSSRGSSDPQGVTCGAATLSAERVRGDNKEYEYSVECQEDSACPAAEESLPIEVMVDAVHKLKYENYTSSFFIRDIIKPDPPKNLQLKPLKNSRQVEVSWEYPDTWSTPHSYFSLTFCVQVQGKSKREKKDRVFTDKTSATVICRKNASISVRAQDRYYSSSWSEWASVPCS
The test is described as follows: ELISA; human IL-23/IL-23R receptor/ligand inhibition ELISA; block buffer 1% BSA in PBS pH 7.4 with 4% Marvel milk; 0.1 mM PMSF added for trypsin-treated V56B2; protocol in the Supplementary Methods. The conditions noted are these: both partners purified.

B1: Vorabody V900, anti-IL-23 p19-specific single domain antibody (VHH)
VHH: DVQLVESGGGQVQPGGSLSLSCESSVSIWSFKVMGWFRQVPGKQRELVATITTGGSPDYSDSVKGRFTISRDYDKRTLYLQMNSLKPEDTAVYYCAGRLWAHITSSGHDVWGQGTQVTVSS
notes: 121 amino acids, 13.2 kDa; also called anti-IL-23 (V900); source: S. cerevisiae or Pichia pastoris shake flask cultures, purified (CaptoS ion exchange chromatography)
In the case of B1, the “IC50 of inhibition of IL-17 production from murine splenocytes co-stimulated with murine IL-2 and human IL-23 (cellular potency in mouse splenocytes)” value with Recombinant Human IL-23 [1] is 10.7 nM. For the same molecule, the Kd with Recombinant Human IL-23 [2] worked out at 0.032 nM. For the same molecule, the IC50 is 0.2 nM with Recombinant Human IL-23 [3] and 0.7 nM in test [4].

B2: Recombinant Human IL-23R-FC (Fc fusion, UniProt Q5VWK5 24-355, looked up)
chain: GITNINCSGHIWVEPATIFKMGMNISIYCQAAIKNCQPRKLHFYKNGIKERFQITRINKTTARLWYKNFLEPHASMYCTAECPKHFQETLICGKDISSGYPPDIPDEVTCVIYEYSGNMTCTWNAGKLTYIDTKYVVHVKSLETEEEQQYLTSSYINISTDSLQGGKKYLVWVQAANALGMEESKQLQIHLDDIVIPSAAVISRAETINATVPKTIIYWDSQTTIEKVSCEMRYKATTNQTWNVKEFDTNFTYVQQSEFYLEPNIKYVFQVRCQETGKRYWQPWSSLFFHKTPETVPQVTSKAFQHDTWNSGLTVASISTGHLTSDNRGDIG
notes: source: bought: R&D systems
For the molecule B2, the binding result with Recombinant Human IL-23 [5] is “binds”.

B3: single domain antibody 12G1, unoptimised anti-IL-23 domain antibody (VHH)
VHH: EVQLVESGGGLVQPGGSLRLSCAASVSIWSFKVMGWYRQVPGKQRELVATITTGGSPDYADSVKGRFTMSRDYDKRTVFLEMDSVKPEDAAVYYCNGRLWAHLTSSGHDVWGQGTRVTVSS
notes: llama-derived, isolated by phage display after immunisation with human IL-23; Parent of V900; also called clone 12G1; not shown: His6, C-terminal, kept; FLAG, C-terminal, kept
Take B3: the “IC50 of inhibition of IL-17 production from murine splenocytes co-stimulated with murine IL-2 and human IL-23 (cellular potency in mouse splenocytes)” value with Recombinant Human IL-23 [1] was found to be 9.3 nM. In the test with Recombinant Human IL-23 [3], the IC50 came to 0.2 nM.
